Results on one substance are retold here after article doi:10.1101/644955.

For the experiment, the target named is FLAG-tagged rainbow trout IL-2 (IL-2A), expressed in insect cells (rainbow trout (Oncorhynchus mykiss)). In words: SEC. In general terms: Size exclusion chromatography separates by hydrodynamic size, large species first.

For orientation: stoichiometry N means a count of units in the complex or per binding partner.

The substance “FLAG-tagged rainbow trout IL-2 (IL-2A), expressed in insect cells (ligand)” came in with a stoichiometry N of 2.
